Data as given in PMC2868900.

Target: thymidylate synthase (TS) (zebrafish) (UniProt A0ACM8Q3Q5)
Test: competition EMSA
Details: 37 C, 10 min, 100 ng TS (200 ng in Fig. 5B legend), 1 ng 32P TS mRNA, non-denaturing 5% acrylamide gel (60:1), binding buffer, salt and pH not given (cited ref.)

Sequence of thymidylate synthase (TS) (zebrafish) (A0ACM8Q3Q5 entry or part of it): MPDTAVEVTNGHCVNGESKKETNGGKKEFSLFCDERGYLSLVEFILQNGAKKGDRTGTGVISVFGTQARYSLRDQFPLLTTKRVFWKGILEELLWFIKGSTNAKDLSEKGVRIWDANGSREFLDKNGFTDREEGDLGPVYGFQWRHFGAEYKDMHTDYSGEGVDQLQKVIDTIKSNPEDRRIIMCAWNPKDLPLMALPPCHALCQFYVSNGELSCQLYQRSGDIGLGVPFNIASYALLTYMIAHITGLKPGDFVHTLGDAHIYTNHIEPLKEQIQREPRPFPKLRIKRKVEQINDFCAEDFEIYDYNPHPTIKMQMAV

## luciferase mRNA
Vs 32P full-length TS mRNA, 100-fold excess also did not compete (Fig. 3)
  IC50: > 1000 nM

## full-length TS mRNA (TS1-1163)
  IC50: 0.5 nM

## TS73-145
  IC50: > 1000 nM

## TS1-145
  IC50: 0.52 nM

## TS146-290
  IC50: > 1000 nM

## TS1-580
  IC50: 0.48 nM

## TS1-290
  IC50: 0.48 nM

## TS37-74 (TS37-72 in Methods)
  IC50: > 1000 nM

## TS291-580
  IC50: > 1000 nM

## TS1-72
  IC50: 0.65 nM

## TS581-1163
  IC50: > 1000 nM

## TS1-36
  IC50: 0.6 nM
